Assay results as given in IntAct's records for PubMed 31515488.

B1: Caspase recruitment domain-containing protein 9 (Homo sapiens), Q9H257 (parent)
chain: MSDYENDDECWSVLEGFRVTLTSVIDPSRITPYLRQCKVLNPDDEEQVLSDPNLVIRKRKVGVLLDILQRTGHKGYVAFLESLELYYPQLYKKVTGKEPARVFSMIIDASGESGLTQLLMTEVMKLQKKVQDLTALLSSKDDFIKELRVKDSLLRKHQERVQRLKEECEAGSRELKRCKEENYDLAMRLAHQSEEKGAALMRNRDLQLEIDQLKHSLMKAEDDCKVERKHTLKLRHAMEQRPSQELLWELQQEKALLQARVQELEASVQEGKLDRSSPYIQVLEEDWRQALRDHQEQANTIFSLRKDLRQGEARRLRCMEEKEMFELQCLALRKDSKMYKDRIEAILLQMEEVAIERDQAIATREELHAQHARGLQEKDALRKQVRELGEKADELQLQVFQCEAQLLAVEGRLRRQQLETLVLSSDLEDGSPRRSQELSLPQDLEDTQLSDKGCLAGGGSPKQPFAALHQEQVLRNPHDAGLSSGEPPEKERRRLKESFENYRRKRALRKMQKGWRQGEEDRENTTGSDNTDTEGS
partner: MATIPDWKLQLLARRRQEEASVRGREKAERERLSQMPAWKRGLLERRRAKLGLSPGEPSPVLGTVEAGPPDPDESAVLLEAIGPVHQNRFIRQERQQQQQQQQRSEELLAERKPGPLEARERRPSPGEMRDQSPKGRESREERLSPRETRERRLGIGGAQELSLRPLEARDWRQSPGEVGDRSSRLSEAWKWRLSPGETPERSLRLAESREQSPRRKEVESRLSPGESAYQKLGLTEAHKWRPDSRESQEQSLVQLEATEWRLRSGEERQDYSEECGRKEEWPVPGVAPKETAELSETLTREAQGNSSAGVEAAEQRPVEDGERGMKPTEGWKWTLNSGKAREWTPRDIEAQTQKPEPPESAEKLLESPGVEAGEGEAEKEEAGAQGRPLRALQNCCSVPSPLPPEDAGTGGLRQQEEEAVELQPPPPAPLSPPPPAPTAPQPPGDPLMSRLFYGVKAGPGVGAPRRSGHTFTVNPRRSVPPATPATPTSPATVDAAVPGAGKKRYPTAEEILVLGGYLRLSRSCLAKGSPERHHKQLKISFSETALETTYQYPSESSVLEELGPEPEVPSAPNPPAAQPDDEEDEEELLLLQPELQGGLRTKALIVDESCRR
B2: Trichoplein keratin filament-binding protein (Homo sapiens), Q9BT92 (parent)
chain: MALPTLPSYWCSQQRLNQQLARQREQEARLRQQWEQNSRYFRMSDICSSKQAEWSSKTSYQRSMHAYQREKMKEEKRRSLEARREKLRQLMQEEQDLLARELEELRLSMNLQERRIREQHGKLKSAKEEQRKLIAEQLLYEHWKKNNPKLREMELDLHQKHVVNSWEMQKEEKKQQEATAEQENKRYENEYERARREALERMKAEEERRQLEDKLQAEALLQQMEELKLKEVEATKLKKEQENLLKQRWELERLEEERKQMEAFRQKAELGRFLRHQYNAQLSRRTQQIQEELEADRRILQALLEKEDESQRLHLARREQVMADVAWMKQAIEEQLQLERAREAELQMLLREEAKEMWEKREAEWARERSARDRLMSEVLTGRQQQIQEKIEQNRRAQEESLKHREQLIRNLEEVRELARREKEESEKLKSARKQELEAQVAERRLQAWEADQQEEEEEEEARRVEQLSDALLQQEAETMAEQGYRPKPYGHPKIAWN
partner: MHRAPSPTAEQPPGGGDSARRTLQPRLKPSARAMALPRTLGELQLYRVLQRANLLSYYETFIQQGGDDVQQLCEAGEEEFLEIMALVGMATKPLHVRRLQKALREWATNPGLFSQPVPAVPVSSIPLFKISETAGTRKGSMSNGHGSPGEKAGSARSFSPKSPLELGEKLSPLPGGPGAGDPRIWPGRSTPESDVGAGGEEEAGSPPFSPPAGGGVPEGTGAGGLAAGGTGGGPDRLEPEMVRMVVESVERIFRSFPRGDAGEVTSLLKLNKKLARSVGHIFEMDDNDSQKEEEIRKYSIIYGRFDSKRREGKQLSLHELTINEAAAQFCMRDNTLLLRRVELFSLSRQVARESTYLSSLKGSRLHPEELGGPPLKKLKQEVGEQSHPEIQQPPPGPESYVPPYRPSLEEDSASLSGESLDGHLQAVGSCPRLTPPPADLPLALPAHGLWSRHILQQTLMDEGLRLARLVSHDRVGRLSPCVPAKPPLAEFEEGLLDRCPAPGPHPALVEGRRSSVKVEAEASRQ
B3: Pachytene checkpoint protein 2 homolog (Homo sapiens), Q15645 (parent)
chain: MDEAVGDLKQALPCVAESPTVHVEVHQRGSSTAKKEDINLSVRKLLNRHNIVFGDYTWTEFDEPFLTRNVQSVSIIDTELKVKDSQPIDLSACTVALHIFQLNEDGPSSENLEEETENIIAANHWVLPAAEFHGLWDSLVYDVEVKSHLLDYVMTTLLFSDKNVNSNLITWNRVVLLHGPPGTGKTSLCKALAQKLTIRLSSRYRYGQLIEINSHSLFSKWFSESGKLVTKMFQKIQDLIDDKDALVFVLIDEVESLTAARNACRAGTEPSDAIRVVNAVLTQIDQIKRHSNVVILTTSNITEKIDVAFVDRADIKQYIGPPSAAAIFKIYLSCLEELMKCQIIYPRQQLLTLRELEMIGFIENNVSKLSLLLNDISRKSEGLSGRVLRKLPFLAHALYVQAPTVTIEGFLQALSLAVDKQFEERKKLAAYI
partner: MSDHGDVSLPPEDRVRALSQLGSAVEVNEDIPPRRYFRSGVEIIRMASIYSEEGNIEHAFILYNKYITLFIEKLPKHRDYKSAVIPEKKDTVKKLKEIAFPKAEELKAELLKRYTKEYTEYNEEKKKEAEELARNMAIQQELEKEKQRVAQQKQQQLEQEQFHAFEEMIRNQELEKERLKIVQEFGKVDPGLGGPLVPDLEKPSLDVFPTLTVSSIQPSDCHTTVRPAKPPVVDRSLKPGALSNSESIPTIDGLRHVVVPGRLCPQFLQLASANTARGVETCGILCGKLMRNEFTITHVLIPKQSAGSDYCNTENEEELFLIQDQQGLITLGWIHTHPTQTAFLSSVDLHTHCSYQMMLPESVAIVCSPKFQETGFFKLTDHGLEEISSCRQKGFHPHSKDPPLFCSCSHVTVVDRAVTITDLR
B4: Protein LDOC1 (Homo sapiens), O95751 (parent)
chain: MVDELVLLLHALLMRHRALSIENSQLMEQLRLLVCERASLLRQVRPPSCPVPFPETFNGESSRLPEFIVQTASYMLVNENRFCNDAMKVAFLISLLTGEAEEWVVPYIEMDSPILGDYRAFLDEMKQCFGWDDDEDDDDEEEEDDY
partner: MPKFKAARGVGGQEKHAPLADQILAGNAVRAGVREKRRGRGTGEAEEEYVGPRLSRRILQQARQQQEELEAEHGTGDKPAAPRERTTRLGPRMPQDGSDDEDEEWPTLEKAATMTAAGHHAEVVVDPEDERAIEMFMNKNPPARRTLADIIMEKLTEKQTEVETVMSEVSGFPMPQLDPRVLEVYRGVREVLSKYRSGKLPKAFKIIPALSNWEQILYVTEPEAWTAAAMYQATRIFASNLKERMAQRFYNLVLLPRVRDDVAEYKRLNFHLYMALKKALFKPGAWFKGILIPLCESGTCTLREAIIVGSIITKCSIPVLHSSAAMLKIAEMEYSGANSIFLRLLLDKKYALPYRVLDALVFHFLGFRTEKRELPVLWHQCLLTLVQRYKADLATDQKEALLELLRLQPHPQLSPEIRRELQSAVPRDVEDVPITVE
B5: Protein LDOC1 (Homo sapiens), O95751 (parent)
chain: B4 chain
partner: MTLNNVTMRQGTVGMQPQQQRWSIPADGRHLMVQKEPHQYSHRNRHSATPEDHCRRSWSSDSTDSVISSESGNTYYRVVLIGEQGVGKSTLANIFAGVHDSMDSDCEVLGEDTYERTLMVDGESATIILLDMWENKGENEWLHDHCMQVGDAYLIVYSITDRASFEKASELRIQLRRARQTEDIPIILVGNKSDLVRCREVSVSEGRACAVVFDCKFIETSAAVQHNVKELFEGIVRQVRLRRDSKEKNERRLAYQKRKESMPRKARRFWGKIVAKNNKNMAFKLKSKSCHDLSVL
B6: Spermatogenesis-associated protein 2 (Homo sapiens), Q9UM82 (parent)
chain: MGKPSSMDTKFKDDLFRKYVQFHESKVDTTTSRQRPGSDECLRVAASTLLSLHKVDPFYRFRLIQFYEVVESSLRSLSSSSLRALHGAFSMLETVGINLFLYPWKKEFRSIKTYTGPFVYYVKSTLLEEDIRAILSCMGYTPELGTAYKLRELVETLQVKMVSFELFLAKVECEQMLEIHSQVKDKGYSELDIVSERKSSAEDVRGCSDALRRRAEGREHLTASMSRVALQKSASERAAKDYYKPRVTKPSRSVDAYDSYWESRKPPLKASLSLRKEPVATDVGDDLKDEIIRPSPSLLTMASSPHGSPDVLPPASPSNGPALLRGTYFSTQDDVDLYTDSEPRATYRRQDALRPDVWLLRNDAHSLYHKRSPPAKESALSKCQSCGLSCSSSLCQRCDSLLTCPPASKPSAFPSKASTHDSLAHGASLREKYPGQTQGLDRLPHLHSKSKPSTTPTSRCGFCNRPGATNTCTQCSKVSCDACLSAYHYDPCYKKSELHKFMPNNQLNYKSTQLSHLVYR
partner: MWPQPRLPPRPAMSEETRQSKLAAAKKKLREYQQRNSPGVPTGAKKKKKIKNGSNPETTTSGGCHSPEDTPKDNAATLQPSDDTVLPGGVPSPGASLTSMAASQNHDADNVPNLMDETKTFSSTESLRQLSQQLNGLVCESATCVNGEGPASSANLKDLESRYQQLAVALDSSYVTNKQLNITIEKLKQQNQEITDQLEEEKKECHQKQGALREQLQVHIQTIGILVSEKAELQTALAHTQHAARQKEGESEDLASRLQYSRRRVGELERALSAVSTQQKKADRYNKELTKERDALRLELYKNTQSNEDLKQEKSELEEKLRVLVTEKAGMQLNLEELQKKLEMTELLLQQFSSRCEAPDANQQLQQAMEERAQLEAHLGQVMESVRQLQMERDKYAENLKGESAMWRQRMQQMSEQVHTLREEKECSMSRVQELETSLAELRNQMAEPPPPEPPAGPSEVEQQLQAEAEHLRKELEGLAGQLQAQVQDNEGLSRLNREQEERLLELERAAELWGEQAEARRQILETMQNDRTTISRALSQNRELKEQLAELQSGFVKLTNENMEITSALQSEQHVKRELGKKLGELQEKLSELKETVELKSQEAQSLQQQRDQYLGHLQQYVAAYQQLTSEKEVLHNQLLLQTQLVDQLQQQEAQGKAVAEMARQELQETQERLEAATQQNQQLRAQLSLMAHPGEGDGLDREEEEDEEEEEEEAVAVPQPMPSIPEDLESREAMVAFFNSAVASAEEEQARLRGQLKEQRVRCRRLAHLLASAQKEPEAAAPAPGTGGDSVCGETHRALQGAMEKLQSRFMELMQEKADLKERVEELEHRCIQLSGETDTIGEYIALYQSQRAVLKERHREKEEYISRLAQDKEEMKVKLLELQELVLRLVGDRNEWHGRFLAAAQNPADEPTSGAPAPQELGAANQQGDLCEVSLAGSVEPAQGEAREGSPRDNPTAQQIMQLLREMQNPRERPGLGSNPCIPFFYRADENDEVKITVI

Variants of: B1
Settings: with ppr18_human PPP1R18, Q6NYC8

effect of a mutation on the interaction	Variant
disrupting interaction strength	V385L

Variants of: B2
Settings: with nab2_human NAB2, Q15742

effect of a mutation on the interaction	Variant
with no effect	K127R

Variants of: B3
Settings: with stabp_human STAMBP

effect of a mutation on the interaction	Variant
with no effect	G409E

Variants of: B4
Settings: with byst_human BYSL

effect of a mutation on the interaction	Variant
disrupting interaction strength	L12H

Variants of: B5
Settings: with gem_human GEM

effect of a mutation on the interaction	Variant
disrupting interaction strength	L12H

Variants of: B6
Settings: with goga2_human GOLGA2, Q08379

effect of a mutation on the interaction	Variant
with no effect	L443F
